Assay results: publication PMC4021333

Substrate: NCC(=O)N[C@@H](Cc1ccccc1)C(=O)Nc1ccc([N+](=O)[O-])cc1
Experiment: purified protein
Conditions: wild type; conditions of the Km measurement not told

B1: DAP BII (Pseudoxanthomonas mexicana) (protein)
chain: GEGMWVPQQLPEIAGPLKKAGLKLSPQQISDLTGDPMGAVVALGGCTASFVSPNGLVVTNHHCAYGAIQLNSTAENNLIKNGFNAPTTADEVSAGPNARVFVLDEITDVTKDAKAAIAAAGDDALARTKALEAFEKKLIADCEAEAGFRCRLYSFSGGNTYRLFKNLEIKDVRLAYAPPGSVGKFGGDIDNWMWPRHTGDFAFYRAYVGKDGKPAAFSKDNVPYQPKHWLKFADQPLGAGDFVMVAGYPGSTNRYALAAEFDNTAQWTYPTIARHYKNQIAMVEAAGKQNADIQVKYAATMAGWNNTSKNYDGQLEGFKRIDAAGQKLREEAAVLGWLKGQGAKGQPALDAHAKLLDLLEQSKATRDRDLTLALFNNTAMLGSATQLYRLSIEREKPNAERESGYQERDLPAIEGGLKQLERRYVAAMDRQLQEYWLNEYIKLPADQRVAAVDAWLGGNDAAAVKRALDRLAGTKLGSTEERLKWFAADRKAFEASNDPAIQYAVAVMPTLLKLEQERKTRAGENLAARPVYLQALADYKKSQGEFVYPDANLSLRITFGNVMGYAPKDGMEYTPFTTLEGVVAKETGQDPFDSPKALLDAVAAKRYGGLEDKRIGSVPVNYLSDLDITGGNSGSPVLDAHGKLVGLAFDGNWESVSSNWVFDPKMTRMIAVDGRYLRWIMQEVYPAPQLLKEMNVGK
- Km: 1.4 mM
